Results: article PMC4070327 (Science (New York, N.Y.), 2014)

What was measured:
[1] = target: T1, E. coli Trigger Factor (TF), full length (E. coli, UniProt P0A850 1-432); assay: ITC
T1 sequence (looked up): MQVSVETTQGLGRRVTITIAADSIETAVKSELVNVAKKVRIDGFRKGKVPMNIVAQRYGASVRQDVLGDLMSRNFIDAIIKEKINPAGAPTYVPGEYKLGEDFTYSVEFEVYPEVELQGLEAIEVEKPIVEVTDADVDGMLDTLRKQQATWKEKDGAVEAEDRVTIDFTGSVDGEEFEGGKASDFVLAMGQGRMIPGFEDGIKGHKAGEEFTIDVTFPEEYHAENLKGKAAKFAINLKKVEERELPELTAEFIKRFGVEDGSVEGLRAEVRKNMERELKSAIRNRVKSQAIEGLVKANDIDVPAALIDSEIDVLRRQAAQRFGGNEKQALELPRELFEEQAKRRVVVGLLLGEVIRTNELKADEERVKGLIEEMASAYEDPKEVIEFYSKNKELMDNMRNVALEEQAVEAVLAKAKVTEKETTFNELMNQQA

[2] = target: T1, E. coli Trigger Factor (TF), full length; assay: NMR titration
[3] = target: T1, E. coli Trigger Factor (TF), full length; assay: ITC + NMR titration

B1: PhoA^a-c (PhoA fragment with TF-binding sites a to c) (domain or fragment, E. coli, UniProt P00634 1-150, looked up)
chain: MKQSTIALALLPLLFTPVTKARTPEMPVLENRAAQGDITAPGGARRLTGDQTAALRDSLSDKPAKNIILLIGDGMGDSEITAARNYAEGAGGFFKGIDALPLTGQYTHYALNKKTGKPDYVTDSAASATAWSTGVKTYNGALGVDIHEKD
Kd [1]: ~2 µM | stoichiometry N [2]: 1 TF per PhoA^a-c

B2: PhoA site b (independent fragment) (domain or fragment)
chain: TPEMPVLENRAAQGDITAPGGARRLTGDQTAALRDSLSDKPAKNIILLIGDGMGDS
Kd [3]: ~200 µM

B3: PhoA^d-e (PhoA fragment with TF-binding sites d and e) (domain or fragment, E. coli)
chain: ARADVTLGGGAKTFAETATAGEWQGKTLREQAQARGYQLVSDAASLNSVTEANQQKPLLGLFADGNMPVRWLGPKATYHGNIDKPAVTCTP
Kd [1]: ~4 µM

B4: PhoA^f-g (PhoA fragment with TF-binding sites f and g) (domain or fragment, E. coli)
chain: QIGETVDLDEAVQRALEFAKKEGNTLVIVTADHAHASQIVAPDTKAPGLTQALNTKDGAVMVMSYGNSEEDSQEHTGSQLRIAAYGPHAANVVGLTDQTDLFYTMKAALGLK
Kd [1]: ~14 µM
